# From US20210063414A1, “METHODS FOR PREVENTING AND/OR TREATING BONE LOSS CONDITIONS BY MODULATING IRISIN” (Dana-Farber Cancer Institute, Inc., priority 2018, published 2021)
# B1: irisin: secreted cleaved form of FNDC5; recombinant human/mouse irisin with C-terminal his tag produced in HEK293 cells (protein)
# chain: DSPSAPVNVTVRHLKANSAVVSWDVLEDEVVIGFAISQQKKDVRMLRFIQEVNTTTRSCALWDLEEDTEYIVHVQAISIQGQSPASEPVLFKTPREAEKMASKNKDEVTMKE
# modifications: left off: small tags and cut ends
# notes: secreted cleaved form of FNDC5; recombinant human/mouse irisin with C-terminal his tag produced in HEK293 cells
# Tested on: primary inguinal fat cells
# Test: Ucp1 mRNA in primary inguinal fat cells
# Assay type: cell-based, mice
# Details: irisin during 6 days differentiation
# Protocol: FIG. 18A-FIG. 18B show mRNA and protein levels of indicated genes. 1 mg/kg irisin was injected to 8-week old mice every other day for 6 days. mRNA levels of indicated genes in inguinal fat were analyzed by qRT-PCR. Cyclophilin was used for housekeeping gene (FIG. 18A). Inguinal fats were also lysed to detect the indicated protein level using immunoblot analysis (FIG. 18B). FIGS. 18C and 18D show mRNA and protein levels of indicated genes. Mice were treated and analyzed as (A-B) with addition of coinjection of […] control RGD peptide or cyclo RGDyK (cRGDyK). mRNA levels of indicated genes in inguinal fat were analyzed by qRT-PCR. Cyclophilin was used for house-keeping gene (FIG. 18C). Inguinal fats were also lysed to detect the indicated protein level using immunoblot analysis (FIG. 18D). […] Ucp1 mRNA level was analyzed by qRT-PCR. […]
# Inguinal fat tissue from 6 weeks old mice was dissected and washed with PBS, minced and digested for 1 hour at 37° C. in PBS containing 10 mM CaCl2, 2.4 U/ml dispase II (Roche) and 10 mg/ml collagenase D (Roche). […] After that, cells were maintained in 1 μM rosiglitazone in the presence of 0, 0.5, 5 or 50 ng/ml recombinant […] his-tag irisin protein for 4 days with medium change every other day. mRNA levels were analyzed as described in gene expression analysis. […]
molecule,measurement,value
B1,gene expression of Ucp1,increased the gene expression of Ucp1
